Molecular target: EGFR on HeLa cells (UniProt P00533 25-1210, limits assumed)
Test: cell-based or functional assay

X… HeLa EC50 [nM]	Binder	Max killing % [%]
0.179	GOMP001_bsAb_045 (bispecific antibody, human IgG1, kappa, L234A L235A) heavy 1: QVQLVQSGAEVKKPGASVKVSCKASGYTFTSHWMHWVRKAPGQGLEWIGEFNPSNGRTNYNEEFKSKATMTVDTSTNTAYMELSSLRSEDTAVYYCASRDYDYDGRYFDYWGQGTLVTVSSASTKGPSVFPLAPSSKSTSGGTAALGCLVADYFPEPVTVSWNSGALTSGVHTFPAVLQSSGLYSLSSVVTVPSSSLGTQTYICNVNHKPSNTKVDEKVEPKSCDKTHTCPPCPAPEAAGGPSVFLFPPKPKDTLMISRTPEVTCVVVDVSHEDPEVKFNWYVDGVEVHNAKTKPREEQYNSTYRVVSVLTVLHQDWLNGKEYKCKVSNKALPAPIEKTISKAKGQPREPQVYTLPPSREEMTDNQVSLTCLVKGFYPSDIAVEWESNGQPENNYKTTPPVLMSDGSFFLASKLTVDKSRWQQGNVFSCSVMHEALHNHYTQKSLSLSPG light 1: RIQMTQSPSSLSASVGDRVTITCSASSSVTYMYWYQDKPGKAPKLLIYDTSNLASGVPSRFSGSGSGTDYTFTISSLQPEDIATYYCQQWSSHIFTFGQGTKVEIKRTVAAPSVFIFPPSDKQLKSGTARVVCLLNNFYPREAKVQWKVDNALQSGNSQESVTEQDSKDSTYSLSSTLTLSKADYEKHKVYACEVTHQGLSSPVTKSFNRGEC heavy 2: EVQLVESGGGLVQPGRSLRLSCATSGFTFADYTMHWVRYAPGKGLEWVSGISWNSGSIDYADRVKGRFTISRDNAKKSLYLQMNSLRAEDTALYFCAKDSSGYGHYYFYYLDVWGRGTTVTVSSASTKGPSVFPLAPSSKSTSGGTAALGCLVKDYFPEPVTVSWNSGALTSGVHTFPAVLQSSGLYSLSSVVTVPSSSLGTQTYICNVNHKPSNTKVDKKVEPKSCDKTHTCPPCPAPEAAGGPSVFLFPPKPKDTLMISRTPEVTCVVVDVSHEDPEVKFNWYVDGVEVHNAKTKPREEQYNSTYRVVSVLTVLHQDWLNGKEYKCKVSNKALPAPIEKTISKAKGQPRRPRVYTLPPSREEMTKNQVSLVCLVKGFYPSDIAVEWESNGQPENNYKTTPPVLDSDGSFFLYSVLTVDKSRWQQGNVFSCSVMHEALHNHYTQKSLSLSPG light 2: not shown	69.5
0.0201	GOMP001_bsAb_044 (bispecific antibody, human IgG1, kappa, L234A L235A) heavy 1: EVQLVESGGGLVKTGGSLRLSCVASGFSFKKAWMNWVRKAPGKGLEWVGRIKRNTDGGTADYAAEVKGRFTLSRDDSKKTLFLQMNSLKTEDTAVYYCTTLDSSSYYVGYYYMDVWGKGTTVTVSSASTKGPSVFPLAPSSKSTSGGTAALGCLVADYFPEPVTVSWNSGALTSGVHTFPAVLQSSGLYSLSSVVTVPSSSLGTQTYICNVNHKPSNTKVDEKVEPKSCDKTHTCPPCPAPEAAGGPSVFLFPPKPKDTLMISRTPEVTCVVVDVSHEDPEVKFNWYVDGVEVHNAKTKPREEQYNSTYRVVSVLTVLHQDWLNGKEYKCKVSNKALPAPIEKTISKAKGQPREPQVYTLPPSREEMTDNQVSLTCLVKGFYPSDIAVEWESNGQPENNYKTTPPVLMSDGSFFLASKLTVDKSRWQQGNVFSCSVMHEALHNHYTQKSLSLSPG light 1: RIQMTQSPSSVSASVGDRVTITCRASQDINNWLAWYQDKPGKAPKLLIYTASSLQSGVPSRFSGSGSGTDFTLTIGSLQPEDFATYYCQQAHSLPITFGQGTRLEIKRTVAAPSVFIFPPSDKQLKSGTARVVCLLNNFYPREAKVQWKVDNALQSGNSQESVTEQDSKDSTYSLSSTLTLSKADYEKHKVYACEVTHQGLSSPVTKSFNRGEC heavy 2: QVQLVQSGAEVKKPGASVKVSCKASGYTFTSHWMHWVRYAPGQGLEWIGEFNPSNGRTNYNEKFKSKATMTVDTSTNTAYMELSSLRSEDTAVYYCASRDYDYDGRYFDYWGRGTLVTVSSASTKGPSVFPLAPSSKSTSGGTAALGCLVKDYFPEPVTVSWNSGALTSGVHTFPAVLQSSGLYSLSSVVTVPSSSLGTQTYICNVNHKPSNTKVDKKVEPKSCDKTHTCPPCPAPEAAGGPSVFLFPPKPKDTLMISRTPEVTCVVVDVSHEDPEVKFNWYVDGVEVHNAKTKPREEQYNSTYRVVSVLTVLHQDWLNGKEYKCKVSNKALPAPIEKTISKAKGQPRRPRVYTLPPSREEMTKNQVSLVCLVKGFYPSDIAVEWESNGQPENNYKTTPPVLDSDGSFFLYSVLTVDKSRWQQGNVFSCSVMHEALHNHYTQKSLSLSPG light 2: DIQMTQSPSSLSASVGDRVTITCSASSSVTYMYWYQRKPGDAPKLLIYDTSNLASGVPSRFSGSGSGTDYTFTISSLQPEDIATYYCQQWSSHIFTFGQGTKVEIKRTVAAPSVFIFPPSDEQLKSGTASVVCLLNNFYPREAKVQWKVDNALQSGNSQESVTEQDSKDSTYSLSSTLTLSKADYEKHKVYACEVTHQGLSSPVTKSFNRGEC	84.1
0.0264	GOMP001_bsAb_046 (bispecific antibody, human IgG1, kappa, L234A L235A) heavy 1: EVQLVESGGGLVQPGRSLRLSCATSGFTFADYTMHWVRKAPGKGLEWVSGISWNSGSIDYADEVKGRFTISRDNAKKSLYLQMNSLRAEDTALYFCAKDSSGYGHYYFYYLDVWGKGTTVTVSSASTKGPSVFPLAPSSKSTSGGTAALGCLVADYFPEPVTVSWNSGALTSGVHTFPAVLQSSGLYSLSSVVTVPSSSLGTQTYICNVNHKPSNTKVDEKVEPKSCDKTHTCPPCPAPEAAGGPSVFLFPPKPKDTLMISRTPEVTCVVVDVSHEDPEVKFNWYVDGVEVHNAKTKPREEQYNSTYRVVSVLTVLHQDWLNGKEYKCKVSNKALPAPIEKTISKAKGQPREPQVYTLPPSREEMTDNQVSLTCLVKGFYPSDIAVEWESNGQPENNYKTTPPVLMSDGSFFLASKLTVDKSRWQQGNVFSCSVMHEALHNHYTQKSLSLSPG light 1: not shown heavy 2: QVQLVQSGAEVKKPGASVKVSCKASGYTFTSHWMHWVRYAPGQGLEWIGEFNPSNGRTNYNEKFKSKATMTVDTSTNTAYMELSSLRSEDTAVYYCASRDYDYDGRYFDYWGRGTLVTVSSASTKGPSVFPLAPSSKSTSGGTAALGCLVKDYFPEPVTVSWNSGALTSGVHTFPAVLQSSGLYSLSSVVTVPSSSLGTQTYICNVNHKPSNTKVDKKVEPKSCDKTHTCPPCPAPEAAGGPSVFLFPPKPKDTLMISRTPEVTCVVVDVSHEDPEVKFNWYVDGVEVHNAKTKPREEQYNSTYRVVSVLTVLHQDWLNGKEYKCKVSNKALPAPIEKTISKAKGQPRRPRVYTLPPSREEMTKNQVSLVCLVKGFYPSDIAVEWESNGQPENNYKTTPPVLDSDGSFFLYSVLTVDKSRWQQGNVFSCSVMHEALHNHYTQKSLSLSPG light 2: DIQMTQSPSSLSASVGDRVTITCSASSSVTYMYWYQRKPGDAPKLLIYDTSNLASGVPSRFSGSGSGTDYTFTISSLQPEDIATYYCQQWSSHIFTFGQGTKVEIKRTVAAPSVFIFPPSDEQLKSGTASVVCLLNNFYPREAKVQWKVDNALQSGNSQESVTEQDSKDSTYSLSSTLTLSKADYEKHKVYACEVTHQGLSSPVTKSFNRGEC	92.6

More lines, now with the values behind:

Binder	X… HeLa EC50 [nM]	Max killing % [%]
GOMP001_bsAb_043 (bispecific antibody, human IgG1, kappa, L234A L235A) heavy 1: QVQLVQSGAEVKKPGASVKVSCKASGYTFTSHWMHWVRKAPGQGLEWIGEFNPSNGRTNYNEEFKSKATMTVDTSTNTAYMELSSLRSEDTAVYYCASRDYDYDGRYFDYWGQGTLVTVSSASTKGPSVFPLAPSSKSTSGGTAALGCLVADYFPEPVTVSWNSGALTSGVHTFPAVLQSSGLYSLSSVVTVPSSSLGTQTYICNVNHKPSNTKVDEKVEPKSCDKTHTCPPCPAPEAAGGPSVFLFPPKPKDTLMISRTPEVTCVVVDVSHEDPEVKFNWYVDGVEVHNAKTKPREEQYNSTYRVVSVLTVLHQDWLNGKEYKCKVSNKALPAPIEKTISKAKGQPREPQVYTLPPSREEMTDNQVSLTCLVKGFYPSDIAVEWESNGQPENNYKTTPPVLMSDGSFFLASKLTVDKSRWQQGNVFSCSVMHEALHNHYTQKSLSLSPG light 1: RIQMTQSPSSLSASVGDRVTITCSASSSVTYMYWYQDKPGKAPKLLIYDTSNLASGVPSRFSGSGSGTDYTFTISSLQPEDIATYYCQQWSSHIFTFGQGTKVEIKRTVAAPSVFIFPPSDKQLKSGTARVVCLLNNFYPREAKVQWKVDNALQSGNSQESVTEQDSKDSTYSLSSTLTLSKADYEKHKVYACEVTHQGLSSPVTKSFNRGEC heavy 2: EVQLVESGGGLVKTGGSLRLSCVASGFSFKKAWMNWVRYAPGKGLEWVGRIKRNTDGGTADYAARVKGRFTLSRDDSKKTLFLQMNSLKTEDTAVYYCTTLDSSSYYVGYYYMDVWGRGTTVTVSSASTKGPSVFPLAPSSKSTSGGTAALGCLVKDYFPEPVTVSWNSGALTSGVHTFPAVLQSSGLYSLSSVVTVPSSSLGTQTYICNVNHKPSNTKVDKKVEPKSCDKTHTCPPCPAPEAAGGPSVFLFPPKPKDTLMISRTPEVTCVVVDVSHEDPEVKFNWYVDGVEVHNAKTKPREEQYNSTYRVVSVLTVLHQDWLNGKEYKCKVSNKALPAPIEKTISKAKGQPRRPRVYTLPPSREEMTKNQVSLVCLVKGFYPSDIAVEWESNGQPENNYKTTPPVLDSDGSFFLYSVLTVDKSRWQQGNVFSCSVMHEALHNHYTQKSLSLSPG light 2: DIQMTQSPSSVSASVGDRVTITCRASQDINNWLAWYQRKPGDAPKLLIYTASSLQSGVPSRFSGSGSGTDFTLTIGSLQPEDFATYYCQQAHSLPITFGQGTRLEIKRTVAAPSVFIFPPSDEQLKSGTASVVCLLNNFYPREAKVQWKVDNALQSGNSQESVTEQDSKDSTYSLSSTLTLSKADYEKHKVYACEVTHQGLSSPVTKSFNRGEC	0.102	76.2
GOMP001_bsAb_049 (bispecific antibody, human IgG1, kappa, L234A L235A) heavy 1: QVQLVQSGAEVKKPGASVKVSCKASGYTFTSHWMHWVRKAPGQGLEWIGEFNPSNGRTNYNEEFKSKATMTVDTSTNTAYMELSSLRSEDTAVYYCASRDYDYDGRYFDYWGQGTLVTVSSASTKGPSVFPLAPSSKSTSGGTAALGCLVADYFPEPVTVSWNSGALTSGVHTFPAVLQSSGLYSLSSVVTVPSSSLGTQTYICNVNHKPSNTKVDEKVEPKSCDKTHTCPPCPAPEAAGGPSVFLFPPKPKDTLMISRTPEVTCVVVDVSHEDPEVKFNWYVDGVEVHNAKTKPREEQYNSTYRVVSVLTVLHQDWLNGKEYKCKVSNKALPAPIEKTISKAKGQPREPQVYTLPPSREEMTDNQVSLTCLVKGFYPSDIAVEWESNGQPENNYKTTPPVLMSDGSFFLASKLTVDKSRWQQGNVFSCSVMHEALHNHYTQKSLSLSPG light 1: RIQMTQSPSSLSASVGDRVTITCSASSSVTYMYWYQDKPGKAPKLLIYDTSNLASGVPSRFSGSGSGTDYTFTISSLQPEDIATYYCQQWSSHIFTFGQGTKVEIKRTVAAPSVFIFPPSDKQLKSGTARVVCLLNNFYPREAKVQWKVDNALQSGNSQESVTEQDSKDSTYSLSSTLTLSKADYEKHKVYACEVTHQGLSSPVTKSFNRGEC heavy 2: QVQLVESGGGVVQPGRSLRLSCAASGFTFSTYGMHWVRYAPGKGLEWVAVIWYDGSHKYYADRVKGRFTISRDNSKKTLYLQMNSLRAEDTGIYYCARTGISGNMSYFYFDHWGRGILVTVSSASTKGPSVFPLAPSSKSTSGGTAALGCLVKDYFPEPVTVSWNSGALTSGVHTFPAVLQSSGLYSLSSVVTVPSSSLGTQTYICNVNHKPSNTKVDKKVEPKSCDKTHTCPPCPAPEAAGGPSVFLFPPKPKDTLMISRTPEVTCVVVDVSHEDPEVKFNWYVDGVEVHNAKTKPREEQYNSTYRVVSVLTVLHQDWLNGKEYKCKVSNKALPAPIEKTISKAKGQPRRPRVYTLPPSREEMTKNQVSLVCLVKGFYPSDIAVEWESNGQPENNYKTTPPVLDSDGSFFLYSVLTVDKSRWQQGNVFSCSVMHEALHNHYTQKSLSLSPG light 2: not shown		55.9
